Measured values: patent KR20240094169A (dated 2024)

T1: BCMA (B-cell maturation antigen) expressed on multiple myeloma H929 cells (UniProt Q02223 1-184, limits assumed)
T1 construct: whole, on cells; also called TNFRSF17; CD269
T1 sequence (looked up): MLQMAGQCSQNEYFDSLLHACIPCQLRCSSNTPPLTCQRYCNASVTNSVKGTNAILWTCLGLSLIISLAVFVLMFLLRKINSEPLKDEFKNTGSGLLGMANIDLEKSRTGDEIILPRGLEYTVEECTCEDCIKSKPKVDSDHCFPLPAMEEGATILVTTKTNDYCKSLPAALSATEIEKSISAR

B1: 항-BCMA sdAb No.11 (VHH)
VHH: KLEESGGGSVQTGGSLRLTCAASGSISRLDNMGWFRQAPGKERELVAAINSKSNKTNYADSVKGRFTISRDNAKNTVDLQMNSLKPEDTAIYYCANWSFDKHRAYWGQGTQVTVSS
notes: Camel-derived single-domain antibody from a phage library; also called anti-BCMA sdAb No.11; 항-BCMA No.11
B2: 항-BCMA sdAb No.7 (VHH)
VHH: KLEESGGGSVQTGGSLRLTCAASGSIFSSGFMAWFRQAPGKEREFVSGISWRGDSTGYADSVKGRFTISRDNAKNTVDLQMNSLKPEDTAIYYCAARGTDTAYWGQGTQVTVSS
notes: Camel-derived single-domain antibody from a phage library; also called anti-BCMA sdAb No.7; 항-BCMA No.7
B3: 항-BCMA sdAb No.19 (VHH)
VHH: KLEESGGGSVQTGGSLRLTCAASGIIFSDDAIGWFRQAPGKERELVSLIDSKSSTYYADSVKGRFTISRDNAKNTVDLQMNSLKPEDTAIYYCNDHKRRQAMEYWGQGTQVTVSS
notes: Camel-derived single-domain antibody from a phage library; also called anti-BCMA sdAb No.19; 항-BCMA No.19

Molecular target: T1, BCMA (B-cell maturation antigen) …
Test: flow cytometry on H929 cells, 1 ㎍ sdAb, PE-conjugated secondary antibody

Row | Binder | binding result
1 | B1 | binds
2 | B2 | binds
3 | B3 | binds
